What was measured:
[1] = molecular target: T1, GST–human PPARγ (full-length PPARγ–GST fusion protein) (human, UniProt P37231 1-505); test: pull-down
T1 sequence (looked up): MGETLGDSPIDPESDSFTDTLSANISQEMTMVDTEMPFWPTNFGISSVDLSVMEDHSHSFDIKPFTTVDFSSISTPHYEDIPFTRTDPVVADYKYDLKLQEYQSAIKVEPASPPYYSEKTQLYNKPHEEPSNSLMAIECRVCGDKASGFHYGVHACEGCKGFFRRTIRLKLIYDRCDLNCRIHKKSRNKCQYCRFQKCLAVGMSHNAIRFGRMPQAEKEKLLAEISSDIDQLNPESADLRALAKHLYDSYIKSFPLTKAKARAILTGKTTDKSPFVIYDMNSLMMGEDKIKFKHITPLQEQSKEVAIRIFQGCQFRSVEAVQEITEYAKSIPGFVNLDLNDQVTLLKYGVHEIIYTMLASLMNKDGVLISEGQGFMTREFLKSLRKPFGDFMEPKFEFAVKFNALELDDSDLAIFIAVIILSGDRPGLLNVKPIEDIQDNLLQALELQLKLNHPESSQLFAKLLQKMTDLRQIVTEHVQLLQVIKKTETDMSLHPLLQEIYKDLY

[2] = molecular target: T1, GST–human PPARγ (full-length PPARγ–GST …); test: pull-down; remark: listed apart in the source

B1: SRC-1-S2, a truncated SRC-1 (steroid receptor co-activator-1) protein (amino acids 623–770) (domain or fragment, human, UniProt Q15788 623-770, looked up)
chain: DSKYSQTSHKLVQLLTTTAEQQLRHADIDTSCKDVLSCTGTSNSASANSSGGSCPSSHSSLTERHKILHRLLQEGSPSDITTLSVEPDKKDSASTSVSVTGQVQGNSSIKLELDASKKKESKDHQLLRYLLDKDEKDLRSTPNLSLDD
- fold binding relative to the vehicle control, with 50 μM Pio [1]: 17 fold
- fold binding relative to the vehicle control, with 50 μM FPP [2]: 6.1 fold
- fold binding relative to the vehicle control, with 100 μM FPP [2]: 15 fold
